{"source": "IntAct's records for PubMed 29892012", "parents": {"B1": {"name": "Ligand of Numb protein X 2 (Homo sapiens), Q8N448 (parent)", "chain": "MGTTSDEMVSVEQTSSSSLNPLCFECGQQHWTRENHLYNYQNEVDDDLVCHICLQPLLQPLDTPCGHTFCYKCLRNFLQEKDFCPLDRKRLHFKLCKKSSILVHKLLDKLLVLCPFSSVCKDVMQRCDLEAHLKNRCPGASHRRVALERRKTSRTQAEIENENGPTLLDPAGTLSPEADCLGTGAVPVERHLTSASLSTWSEEPGLDNPAFEESAGADTTQQPLSLPEGEITTIEIHRSNPYIQLGISIVGGNETPLINIVIQEVYRDGVIARDGRLLAGDQILQVNNYNISNVSHNYARAVLSQPCNTLHLTVLRERRFGNRAHNHSDSNSPREEIFQVALHKRDSGEQLGIKLVRRTDEPGVFILDLLEGGLAAQDGRLSSNDRVLAINGHDLKYGTPELAAQIIQASGERVNLTIARPGKPQPGNTIREAGNHSSSSQHHTPPPYYSRPSSHKDLTQCVTCQEKHITVKKEPHESLGMTVAGGRGSKSGELPIFVTSVPPHGCLARDGRIKRGDVLLNINGIDLTNLSHSEAVAMLKASAASPAVALKALEVQIVEEATQNAEEQPSTFSENEYDASWSPSWVMWLGLPSTLHSCHDIVLRRSYLGSWGFSIVGGYEENHTNQPFFIKTIVLGTPAYYDGRLKCGDMIVAVNGLSTVGMSHSALVPMLKEQRNKVTLTVICWPGSLV", "partner": "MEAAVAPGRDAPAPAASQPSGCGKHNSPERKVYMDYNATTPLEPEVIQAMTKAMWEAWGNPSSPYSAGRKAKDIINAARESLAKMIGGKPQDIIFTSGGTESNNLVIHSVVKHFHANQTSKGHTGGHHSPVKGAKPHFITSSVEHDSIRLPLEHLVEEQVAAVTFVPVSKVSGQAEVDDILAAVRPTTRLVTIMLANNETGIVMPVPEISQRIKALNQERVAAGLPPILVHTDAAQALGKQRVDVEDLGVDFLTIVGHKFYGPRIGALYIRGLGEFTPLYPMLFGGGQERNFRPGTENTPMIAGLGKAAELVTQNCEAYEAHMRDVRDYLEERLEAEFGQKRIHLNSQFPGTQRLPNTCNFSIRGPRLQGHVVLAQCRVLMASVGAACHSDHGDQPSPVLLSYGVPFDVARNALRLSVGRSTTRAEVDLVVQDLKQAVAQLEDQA"}, "B2": {"name": "Coiled-coil alpha-helical rod protein 1 (Homo sapiens), Q8TD31 (parent)", "chain": "MFPPSGSTGLIPPSHFQARPLSTLPRMAPTWLSDIPLVQPPGHQDVSERRLDTQRPQVTMWERDVSSDRQEPGRRGRSWGLEGSQALSQQAEVIVRQLQELRRLEEEVRLLRETSLQQKMRLEAQAMELEALARAEKAGRAEAEGLRAALAGAEVVRKNLEEGSQRELEEVQRLHQEQLSSLTQAHEEALSSLTSKAEGLEKSLSSLETRRAGEAKELAEAQREAELLRKQLSKTQEDLEAQVTLVENLRKYVGEQVPSEVHSQTWELERQKLLETMQHLQEDRDSLHATAELLQVRVQSLTHILALQEEELTRKVQPSDSLEPEFTRKCQSLLNRWREKVFALMVQLKAQELEHSDSVKQLKGQVASLQEKVTSQSQEQAILQRSLQDKAAEVEVERMGAKGLQLELSRAQEARRRWQQQTASAEEQLRLVVNAVSSSQIWLETTMAKVEGAAAQLPSLNNRLSYAVRKVHTIRGLIARKLALAQLRQESCPLPPPVTDVSLELQQLREERNRLDAELQLSARLIQQEVGRAREQGEAERQQLSKVAQQLEQELQQTQESLASLGLQLEVARQGQQESTEEAASLRQELTQQQELYGQALQEKVAEVETRLREQLSDTERRLNEARREHAKAVVSLRQIQRRAAQEKERSQELRRLQEEARKEEGQRLARRLQELERDKNLMLATLQQEGLLSRYKQQRLLTVLPSLLDKKKSVVSSPRPPECSASAPVAAAVPTRESIKGSLSVLLDDLQDLSEAISKEEAVCQGDNLDRCSSSNPQMSS", "partner": "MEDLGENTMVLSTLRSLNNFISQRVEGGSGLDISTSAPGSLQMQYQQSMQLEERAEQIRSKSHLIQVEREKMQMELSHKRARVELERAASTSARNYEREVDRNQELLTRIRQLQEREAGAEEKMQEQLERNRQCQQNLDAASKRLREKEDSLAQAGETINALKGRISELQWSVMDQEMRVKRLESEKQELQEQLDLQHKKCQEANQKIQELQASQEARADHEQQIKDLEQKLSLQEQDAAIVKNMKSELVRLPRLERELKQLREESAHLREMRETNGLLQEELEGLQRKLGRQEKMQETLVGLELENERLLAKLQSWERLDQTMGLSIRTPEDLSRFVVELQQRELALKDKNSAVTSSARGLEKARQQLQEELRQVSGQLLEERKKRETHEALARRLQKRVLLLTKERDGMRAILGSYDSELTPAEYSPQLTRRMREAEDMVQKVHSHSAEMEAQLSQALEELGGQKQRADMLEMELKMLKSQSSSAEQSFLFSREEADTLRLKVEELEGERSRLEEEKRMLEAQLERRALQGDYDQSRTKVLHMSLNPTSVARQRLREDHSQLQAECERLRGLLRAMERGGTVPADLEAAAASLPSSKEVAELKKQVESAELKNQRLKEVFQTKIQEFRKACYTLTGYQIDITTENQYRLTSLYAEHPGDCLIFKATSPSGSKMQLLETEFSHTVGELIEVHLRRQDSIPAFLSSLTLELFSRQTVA"}, "B3": {"name": "Ribosome assembly protein METTL17, mitochondrial (Homo sapiens), Q9H7H0 (parent)", "chain": "MAAALKCLLTLGRWCPGLGVAPQARALAALVPGVTQVDNKSGFLQKRPHRQHPGILKLPHVRLPQALANGAQLLLLGSAGPTMENQVQTLTSYLWSRHLPVEPEELQRRARHLEKKFLENPDLSQTEEKLRGAVLHALRKTTYHWQELSYTEGLSLVYMAARLDGGFAAVSRAFHEIRARNPAFQPQTLMDFGSGTGSVTWAAHSIWGQSLREYMCVDRSAAMLVLAEKLLKGGSESGEPYIPGVFFRQFLPVSPKVQFDVVVSAFSLSELPSKADRTEVVQTLWRKTGHFLVLVENGTKAGHSLLMDARDLVLKGKEKSPLDPRPGFVFAPCPHELPCPQLTNLACSFSQAYHPIPFSWNKKPKEEKFSMVILARGSPEEAHRWPRITQPVLKRPRHVHCHLCCPDGHMQHAVLTARRHGRDLYRCARVSSWGDLLPVLTPSAFPPSTAQDPSES", "partner": "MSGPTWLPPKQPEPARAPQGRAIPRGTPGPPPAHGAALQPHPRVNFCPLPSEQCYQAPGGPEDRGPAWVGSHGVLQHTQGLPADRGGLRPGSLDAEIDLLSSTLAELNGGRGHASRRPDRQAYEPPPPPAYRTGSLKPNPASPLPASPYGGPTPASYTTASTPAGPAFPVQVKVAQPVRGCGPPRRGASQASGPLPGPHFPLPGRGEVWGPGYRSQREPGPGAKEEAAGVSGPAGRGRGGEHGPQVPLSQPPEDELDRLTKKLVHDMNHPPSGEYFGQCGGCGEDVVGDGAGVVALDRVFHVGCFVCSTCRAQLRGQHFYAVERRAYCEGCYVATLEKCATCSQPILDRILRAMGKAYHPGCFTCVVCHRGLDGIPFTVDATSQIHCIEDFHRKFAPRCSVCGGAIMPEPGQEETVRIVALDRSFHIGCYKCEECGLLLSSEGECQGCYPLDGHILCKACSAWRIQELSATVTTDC"}, "B4": {"name": "Coiled-coil alpha-helical rod protein 1 (Homo sapiens), Q8TD31 (parent)", "chain": "B2 chain", "partner": "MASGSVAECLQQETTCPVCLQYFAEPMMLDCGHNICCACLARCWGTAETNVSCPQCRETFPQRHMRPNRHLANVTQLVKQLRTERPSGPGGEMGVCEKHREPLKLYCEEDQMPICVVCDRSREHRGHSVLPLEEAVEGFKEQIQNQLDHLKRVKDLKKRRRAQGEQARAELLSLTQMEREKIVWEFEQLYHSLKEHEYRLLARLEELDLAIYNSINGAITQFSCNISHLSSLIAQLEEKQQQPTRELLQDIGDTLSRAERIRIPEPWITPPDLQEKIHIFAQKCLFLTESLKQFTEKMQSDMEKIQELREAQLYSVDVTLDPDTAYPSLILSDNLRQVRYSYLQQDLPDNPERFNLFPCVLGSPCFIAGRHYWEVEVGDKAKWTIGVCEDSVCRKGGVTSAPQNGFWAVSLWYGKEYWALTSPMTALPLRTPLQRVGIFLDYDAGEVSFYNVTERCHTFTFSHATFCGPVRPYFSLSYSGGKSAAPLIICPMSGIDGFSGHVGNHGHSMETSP"}, "B5": {"name": "Myotubularin-related protein 9 (Homo sapiens), Q96QG7 (parent)", "chain": "MEFAELIKTPRVDNVVLHRPFYPAVEGTLCLTGHHLILSSRQDNTEELWLLHSNIDAIDKRFVGSLGTIIIKCKDFRIIQLDIPGMEECLNIASSIEALSTLDSITLMYPFFYRPMFEVIEDGWHSFLPEQEFELYSSATSEWRLSYVNKEFAVCPSYPPIVTVPKSIDDEALRKVATFRHGGRFPVLSYYHKKNGMVIMRSGQPLTGTNGRRCKEDEKLINATLRAGKRGYIIDTRSLNVAQQTRAKGGGFEQEAHYPQWRRIHKSIERYHILQESLIKLVEACNDQTHNMDRWLSKLEASNWLTHIKEILTTACLAAQCIDREGASILIHGTEGTDSTLQVTSLAQIILEPRSRTIRGFEALIEREWLQAGHPFQQRCAQSAYCNTKQKWEAPVFLLFLDCVWQILRQFPCSFEFNENFLIMLFEHAYASQFGTFLGNNESERCKLKLQQKTMSLWSWVNQPSELSKFTNPLFEANNLVIWPSVAPQSLPLWEGIFLRWNRSSKYLDEAYEEMVNIIEYNKELQAKVNILRRQLAELETEDGMQESP"}}, "data": [{"variants_of": "B1", "settings": "with scly_human SCLY", "values": [{"variant": "P669A", "effect of a mutation on the interaction": "with no effect"}]}, {"variants_of": "B2", "settings": "with md1l1_human MAD1L1, Q9Y6D9", "values": [{"variant": "W337R", "effect of a mutation on the interaction": "disrupting interaction strength"}]}, {"variants_of": "B3", "settings": "with trip6_human TRIP6, Q15654", "values": [{"variant": "R212H", "effect of a mutation on the interaction": "with no effect"}]}, {"variants_of": "B4", "settings": "with tri27_human TRIM27, P14373", "values": [{"variant": "W337R", "effect of a mutation on the interaction": "disrupting interaction strength"}]}, {"variants_of": "B5", "settings": "with emil1_human EMILIN1, Q9Y6C2", "values": [{"variant": "R359S", "effect of a mutation on the interaction": "with no effect"}]}]}
